Measurements as given in US20160031996A1 (CSL, published 2016).

Tests used:
Assay in all cases: Western blot, supernatants of 293FS cells
[1] = target: T1, soluble human IL-3Rα 1-306-His E51A (human, UniProt P26951 19-307)
T1 construct: supernatant of 293FS cells; also called E51, soluble alanine
T1 sequence: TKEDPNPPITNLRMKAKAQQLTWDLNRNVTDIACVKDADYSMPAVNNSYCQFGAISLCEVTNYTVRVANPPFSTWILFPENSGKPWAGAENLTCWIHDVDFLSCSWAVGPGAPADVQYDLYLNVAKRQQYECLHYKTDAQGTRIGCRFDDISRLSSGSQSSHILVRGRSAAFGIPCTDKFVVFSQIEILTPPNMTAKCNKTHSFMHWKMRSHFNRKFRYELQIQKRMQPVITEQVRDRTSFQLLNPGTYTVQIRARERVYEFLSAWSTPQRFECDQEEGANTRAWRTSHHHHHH

[2] = target: T2, soluble human IL-3Rα 1-306-His W93A (human, UniProt P26951 19-307)
T2 construct: supernatant of 293FS cells; also called W93, soluble alanine
T2 sequence: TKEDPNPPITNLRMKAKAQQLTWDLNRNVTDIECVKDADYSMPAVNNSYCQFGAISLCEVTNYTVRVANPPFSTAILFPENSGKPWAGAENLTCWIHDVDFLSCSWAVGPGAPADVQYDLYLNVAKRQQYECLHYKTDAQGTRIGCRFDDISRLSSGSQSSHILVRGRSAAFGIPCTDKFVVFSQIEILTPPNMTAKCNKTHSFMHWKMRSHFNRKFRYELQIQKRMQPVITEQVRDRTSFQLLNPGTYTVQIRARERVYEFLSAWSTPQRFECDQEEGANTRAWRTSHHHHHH

[3] = target: T3, soluble human IL-3Rα 1-306-His F90A (human, UniProt P26951 19-307)
T3 construct: supernatant of 293FS cells; also called F90, soluble alanine
T3 sequence: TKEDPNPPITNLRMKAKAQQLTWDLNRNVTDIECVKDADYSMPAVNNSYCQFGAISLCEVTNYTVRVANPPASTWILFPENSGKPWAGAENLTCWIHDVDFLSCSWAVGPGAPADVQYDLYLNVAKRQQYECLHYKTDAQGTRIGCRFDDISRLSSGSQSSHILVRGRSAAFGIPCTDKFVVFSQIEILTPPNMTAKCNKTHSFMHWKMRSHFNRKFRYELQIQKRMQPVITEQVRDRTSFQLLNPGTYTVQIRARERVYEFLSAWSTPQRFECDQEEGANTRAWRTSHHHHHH

[4] = target: T4, soluble human IL-3Rα 1-306-His Y67A (human, UniProt P26951 19-307)
T4 construct: supernatant of 293FS cells; also called Y67, soluble alanine
T4 sequence: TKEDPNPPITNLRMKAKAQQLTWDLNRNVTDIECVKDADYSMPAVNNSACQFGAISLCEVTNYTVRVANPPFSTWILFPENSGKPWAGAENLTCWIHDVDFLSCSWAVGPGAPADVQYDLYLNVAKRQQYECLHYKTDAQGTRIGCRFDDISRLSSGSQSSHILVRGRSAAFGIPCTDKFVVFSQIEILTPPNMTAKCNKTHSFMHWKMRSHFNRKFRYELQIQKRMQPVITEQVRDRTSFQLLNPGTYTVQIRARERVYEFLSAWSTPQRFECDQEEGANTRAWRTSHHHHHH

[5] = target: T5, soluble human IL-3Rα 1-306-His I50A (human, UniProt P26951 19-307)
T5 construct: supernatant of 293FS cells; also called I50, soluble alanine
T5 sequence: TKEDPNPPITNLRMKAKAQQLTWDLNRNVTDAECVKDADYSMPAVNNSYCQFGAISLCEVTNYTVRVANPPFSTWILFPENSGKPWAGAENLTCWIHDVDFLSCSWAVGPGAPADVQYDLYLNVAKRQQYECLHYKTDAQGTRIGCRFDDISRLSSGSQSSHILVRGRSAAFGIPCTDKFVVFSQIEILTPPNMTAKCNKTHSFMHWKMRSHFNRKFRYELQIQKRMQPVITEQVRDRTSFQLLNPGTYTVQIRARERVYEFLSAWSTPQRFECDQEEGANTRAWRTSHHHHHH

[6] = target: T6, soluble human IL-3Rα 1-306-His S59A (human, UniProt P26951 19-307)
T6 construct: supernatant of 293FS cells; also called S59, soluble alanine
T6 sequence: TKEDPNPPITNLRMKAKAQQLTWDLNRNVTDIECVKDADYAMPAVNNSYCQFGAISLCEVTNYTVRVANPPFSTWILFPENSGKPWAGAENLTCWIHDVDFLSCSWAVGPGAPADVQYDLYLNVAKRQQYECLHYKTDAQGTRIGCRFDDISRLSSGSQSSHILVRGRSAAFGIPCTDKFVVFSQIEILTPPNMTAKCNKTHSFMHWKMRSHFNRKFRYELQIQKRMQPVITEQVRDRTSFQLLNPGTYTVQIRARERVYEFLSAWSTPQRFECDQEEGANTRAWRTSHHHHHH

[7] = target: T7, soluble human IL-3Rα 1-306-His P97A (human, UniProt P26951 19-307)
T7 construct: supernatant of 293FS cells; also called P97, soluble alanine
T7 sequence: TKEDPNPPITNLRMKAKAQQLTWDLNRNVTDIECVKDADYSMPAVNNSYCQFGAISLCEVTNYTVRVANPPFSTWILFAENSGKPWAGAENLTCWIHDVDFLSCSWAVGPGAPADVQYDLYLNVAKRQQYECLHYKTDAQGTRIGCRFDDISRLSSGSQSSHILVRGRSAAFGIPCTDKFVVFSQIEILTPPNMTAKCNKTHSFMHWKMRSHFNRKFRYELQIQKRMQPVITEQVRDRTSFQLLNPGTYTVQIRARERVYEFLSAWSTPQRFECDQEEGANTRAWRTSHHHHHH

Measured: binding result

B1: antibody CSL362 (antibody, V domains shown)
VH: EVQLVQSGAEVKKPGESLKISCKGSGYSFTDYYMKWARQMPGKGLEWMGDIIPSNGATFYNQKFKGQVTISADKSISTTYLQWSSLKASDTAMYYCARSHLLRASWFAYWGQGTMVTVSS
VL: DIVMTQSPDSLAVSLGERATINCESSQSLLNSGNQKNYLTWYQQKPGQPPKPLIYWASTRESGVPDRFSGSGSGTDFTLTISSLQAEDVAVYYCQNDYSYPYTFGQGTKLEIKR
no binding: all assays above
